Assay results reported in paper PMC10267580 (2023).
Changes are numbered by the printed parent chain. In names and notes the source's numbering stands.

B1: ELKS1_RBD S868A (domain or fragment)
chain: RKHLEEVLEMKQEALLAAIAEKDANIALLELSSSKKKTQEEVAALKREKDRLVQQLKQQTQNRMKLMADNYEDD
B2: ELKS1_RBD, Rab-binding domain of ELKS1 (residues 849-922) (domain or fragment)
chain: B1 chain with A20S

Assays:
[1] = target: Rab6B^Q72L, GTPase domain (residues 8-176), constitutively active mutant (mouse, UniProt P61294 8-176, Q72L); assay: ITC
[2] = target: Rab6B^Q72L L11E, GTPase domain (mouse, UniProt P61294 8-176, Q72L | L11E); assay: ITC
Rab6B^Q72L L11E, GTPase domain, sequence (P61294 8-176 L11E/Q72L): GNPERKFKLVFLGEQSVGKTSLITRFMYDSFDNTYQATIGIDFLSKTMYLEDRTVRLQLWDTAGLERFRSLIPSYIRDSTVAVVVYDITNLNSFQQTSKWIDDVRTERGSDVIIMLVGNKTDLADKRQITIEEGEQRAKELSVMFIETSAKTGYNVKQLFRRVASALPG

Rab6B^Q72L, GTPase domain (residues 8-176), constitutively active mutant, sequence (P61294 8-176 Q72L): as the sequence (P61294 8-176 L11E/Q72L) above, with E4L counted along it

Row | Binder | Kd [1] | Kd [2]
1 | B1 | 26 µM | 
2 | B2 |  | > 50 µM
